B2: VapC26 toxin with N-terminal (His)6 tag (native, co-expressed with VapB26) (natural protein)
chain: MIIDTSALLAYFDAAEPDHAAVSECIDSSADALVVSPYVVAELDYLVATRVGVDAELAVLRELAGGAWELANCGAAEIEQAARIVTKYQDQRIGIADAANVVLADRYRTRTILTLDRRHFSALRPIGGGRFTVIP

For test [1], the target named is B2. Put plainly: crystal structure.
A further test has as its target VapB26 Y51E (Mycobacterium tuberculosis, UniProt O53778 1-71, Y51E). Put plainly: co-purification on a Ni2+ affinity column.

B1: VapB26 antitoxin (untagged, native, co-expressed with VapC26) (natural protein)
chain: MDKTTVYLPDELKAAVKRAARQRGVSEAQVIRESIRAAVGGAKPPPRGGLYAGSEPIARRVDELLAGFGER
Regarding B1, the binding result in test [1] was “binds”.

Regarding B2, the binding result with VapB26 Y51E is recorded as “binds”.

The values above are taken from publication PMC5737657 (Nucleic Acids Research, 2017).
